Measured values published in the supplement of paper PMC9170038.

Key:
[1] = tested on: K4 kissing-loop RNA reporter; assay: apparent KD of K4 kissing-loop reporter; higher = weaker reporter binding; details: Eterna round: R107;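 also: bound reporter read as fluorescence of individual clusters on recovered sequencing chips by microscopy, with normalized cluster intensities fitted with a binding model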
Method: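 RNA-MaP round R107: designed RNA switches with theophylline, tryptophan, arginine or FMN aptamers are transcribed on-chip within common flanks. They are titrated with a labelled K4 kissing-loop RNA reporter in RNA-MaP buffer (100 mM Tris pH 7.5, 80 mM KCl, 4 mM MgCl2), without ligand or with the indicated ligand. Median apparent KD per design.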

MS2 coat protein = assay: apparent KD of MS2 coat protein; designed switch direction (-1 OFF switch, 1 ON switch): -1; higher = weaker reporter binding
How it was run: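 The buffer was Tris-HCl pH 7.5 with KCl, MgCl2, BSA, DTT, tRNA and Tween-20. In it, SNAP-549-labelled MS2 coat protein was titrated in doubling steps from 0.7 or 1.5 nM to 3 µM over chip-bound RNA switches transcribed by stalled E. coli RNA polymerase on Illumina chips. Apparent KD is the per-design median over clusters of curve fits to normalised fluorescence.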

[2] = Eterna round: R95, input ligand: FMN 200 uM
[3] = Eterna round: R95, input ligand: microRNA oligo, concentration not stated
[4] = Eterna round: R95, input ligand: none
[5] = input ligand: microRNA oligo, concentration not stated

Sequence | apparent KD of MS2 coat protein (MS2 coat protein; input ligand: FMN 200 uM) | apparent KD of MS2 coat protein (MS2 coat protein; input ligand: none) | other results
UCUGUUGUAUAUGAUACCAGCAGUGAGAGACAGGAAGUAUAGUGAUGUUAUAUGAGAGAAUGCCCUUGGCAGCGUGUGCGGUUGG [SSTheophylB.W] |  |  | apparent KD of K4 kissing-loop reporter ([1]; input ligand: FMN 200 uM): 0.191 µM; apparent KD of K4 kissing-loop reporter ([1]; input ligand: arginine 13.2 mM): 0.158 µM; apparent KD of K4 kissing-loop reporter ([1]; input ligand: none): 0.155 µM; apparent KD of K4 kissing-loop reporter ([1]; input ligand: theophylline 20 uM): 0.148 µM; apparent KD of K4 kissing-loop reporter ([1]; input ligand: tryptophan 2.4 mM): 0.131 µM
GGUUGGCGAGGAUAUACAUGAGGAUCACCCAUGUGAGAUAAAAAAGUGAGGAAGAAAAGUAGAAGGCGCUGACG [salish99_ex3_r3_010] (puzzle: Exclusion 3) |  |  | apparent KD of MS2 coat protein (MS2 coat protein; [2]): 1.14 µM; apparent KD of MS2 coat protein (MS2 coat protein; [3]): 0.0715 µM; apparent KD of MS2 coat protein (MS2 coat protein; [4]): 0.0851 µM
GCACUGCGAGGAUAUACAUGAGGAUCACCCAUGUGUCGGCAGCCAUGUUAUUUCUAAUGUAGAAGGCGCGUAAA [JR_Ex3_Sub001] (Eterna round: R97, puzzle: Exclusion 3) | 0.125 µM | 0.033 µM | 
ACAUGAGGAUCACCCAUGUAAUCAUGAUGGCUGAUGUAGAGCUAGGAUAUGAGUGGCUUUCUAUCUCAGAAGGAGCUAGACUGG [Deportation 41 - Jieux - Exclusion NG 3] (Eterna round: R96, puzzle: Exclusion NG 3) | 0.0293 µM | 0.0349 µM | apparent KD of MS2 coat protein (MS2 coat protein; [5]): 0.0181 µM
ACAAAACAUGAGGAUCACCCAUGUGAGGAUAUGCGAAACAAACAAACAAACAAACAAAGCAGAAGGCACAACAA [Ex 1 Tesla 3] (Eterna round: R96, puzzle: Exclusion 1) |  |  | apparent KD of MS2 coat protein (MS2 coat protein; [5]): 0.0156 µM
AUGUCGGCAGGAUAUACAUGAGGAUCACCCAUGUAAAUUUUUCGUUUAACUUGAAUGUGUAGAAGGGCCAUGUA [Ex3 #69] (Eterna round: R97, puzzle: Exclusion 3) | 0.0291 µM | 0.0289 µM | 
ACAAGCUAAGUGCUCGGUCCGGGAGACACGUGAUCAGCGACAUGAGGAUCACCCAUGUAAUAGGAGCUUAAAACGUU [solution 46] (Eterna round: R96, puzzle: Sensor v2, turn-off variant 2) | 0.015 µM | 0.0197 µM | apparent KD of MS2 coat protein (MS2 coat protein; [5]): 0.0201 µM
CGUUCGCGAGGAUAUGCAUUCGAGUCCACUACGUGUCUGGGACUUGAGGAUCACCCAAGUAGAAGGCGCCUCAA [salish99_ex2_r4_651] (Eterna round: R97, puzzle: Exclusion 2) | 0.171 µM | 0.23 µM | 
GAUACACAUGAGGAUCACCCAUGUGAGGAUAUGCGUACGUUGUCCGUAGGCGACGUGCGCAGAAGGCGCAAGGU [Mat - Mod of JL D96] (puzzle: Exclusion 1) |  |  | apparent KD of MS2 coat protein (MS2 coat protein; [3]): 0.055 µM
UUUUAGCAAGCGAGUAUUAACAUGAGGAUCACCCAUGUGCAUCCAGUAUUACUUUUAGAUCUUGCUCGUCUUAUAUA [JR_STOV1_v2_Sub083] (Eterna round: R97, puzzle: Sensor, turn-off variant 1) | 0.339 µM | 0.381 µM | 
CCACUGCAUUGCAGUGUCGACAUGAGGAUCACCCAUGUGUCGCAGGCGCCGAGCUUUCCGCUCGUUACGUAUCGACG [Arorin] (Eterna round: R96, puzzle: Sensor v2, turn-off variant) | 0.0603 µM | 0.0607 µM | apparent KD of MS2 coat protein (MS2 coat protein; [5]): 0.0421 µM
UUUUAGAGAGGAUAUAUAAAGUGAAACAUGAGGAUCACCCAUGUAAUUUUAUGGAUGUAAAUAGAAGGCUCAUUUA [JL-ex5-3.01] (puzzle: Exclusion 5) |  |  | apparent KD of MS2 coat protein (MS2 coat protein; [3]): 0.0343 µM
AUAAUACAUGUAGGAUAUCUGCACGAUUAGUGCAGAGAAGGACAUGAGGAUCACCCAUGUAAUUAAGAUCAAUUAUUAAAUUAU [ENG1/3-D1] (Eterna round: R96, puzzle: Exclusion NG 1) | 0.238 µM | 0.057 µM | apparent KD of MS2 coat protein (MS2 coat protein; [5]): 0.0639 µM
ACAUGUUGUCCAUGAUAUUACAUGAGGAUCACCCAUGUUAUGGCGAUUUUGAUGUGUAAGUUUGUUGCUCGUCUUAU [JR_STOV1_Sub061] (Eterna round: R97, puzzle: Sensor, turn-off variant 1) | 0.0192 µM | 0.0206 µM | 
CCGACUCAAGGAUAUUGUACUGCUGACAUGAGGAUCACCCAUGUAUGUUAACUCGGCCGACGAGAAGGUGACGACA [BotMod 1 - Jieux - Exclusion 5] (Eterna round: R97, puzzle: Exclusion 5) | 0.0396 µM | 0.0431 µM | 
GAAAACGCAGAGGAUAUUUCAGAUCAAAGCUGCAAAGAAGGCUGCACAUGAGGAUCACCCAUGUGGUCUUCAAU [Mat - Exclusion 6 - JL Mod - D8] (Eterna round: R97, puzzle: Exclusion 6) | 0.315 µM | 0.0258 µM | 
CAGGUCCGAGGAUAUAUUAUGUGAAACAUGAGGAUCACCCAUGUUAUAUGAUGGAUGUAAAUAGAAGGCGGACUUG [Mat - Exclusion 5 - JL mod - D64] (puzzle: Exclusion 5) |  |  | apparent KD of MS2 coat protein (MS2 coat protein; [2]): 0.0239 µM; apparent KD of MS2 coat protein (MS2 coat protein; [3]): 0.0293 µM; apparent KD of MS2 coat protein (MS2 coat protein; [4]): 0.0353 µM
CUGGACAGAGGAUAUUGUGCUGCUGACAUGAGGAUCACCCAUGUAUGUUAACUCGGCCGUCGAGAAGGCUGACAGG [BotMod 17 - Jieux - Exclusion 5] (Eterna round: R97, puzzle: Exclusion 5) | 0.0143 µM | 0.0192 µM | 
CGAUAAAGGUGAGGAUAUGAGAAUAGAAAGAAAUCAGAAGGCACACAUGAGGAUCACCCAUGUGAGUUCUUGAGAUUACAUGGU [Prohibition 44 - Jieux - Exclusion NG 1] (Eterna round: R96, puzzle: Exclusion NG 1) |  |  | apparent KD of MS2 coat protein (MS2 coat protein; [5]): 0.011 µM
AUUUUAACAUAGGAUAUCGAAUUUAUUAUUUAACGAGAAGGAUGAACAUGAGGAUCACCCAUGUGGUAUCAUGG [JL-ex6-3.02] (puzzle: Exclusion 6) |  |  | apparent KD of MS2 coat protein (MS2 coat protein; [3]): 0.204 µM
GCCGAUUAAGUGAGGAUAUACCUAUGGAUACAUAGGUAGAAGGCACAUGAGGAUCACCCAUGUUCCUCAUCGGC [Fiskers BMX 4 - 11] (Eterna round: R96, puzzle: Brourd's mod of Exclusion 4) | 0.155 µM | 0.0213 µM | apparent KD of MS2 coat protein (MS2 coat protein; [5]): 0.0165 µM
AUUUACAAGCUAAGAUCCUACAUGAGGAUCACCCAUGUGGUCCGGUGACGUGAGUCACCGGACUUAGCUCGUCUUGG [salish99_S_TOV1_R5_083] (Eterna round: R97, puzzle: Sensor, turn-off variant 1) | 0.0544 µM | 0.0614 µM | 
ACUGUGUAAGGAUAUGUGAUACACUGCUAUUUAGGUGAGUCACAGAAGGUACAUGAGGAUCACCCAUGUCCGGG [Eternabot (L2) Solution 32] (Eterna round: R97, puzzle: Exclusion 4) | 0.222 µM | 0.172 µM | 
GCAGGUUAAGUCAGGAUAUACCUAUGGAUACAUAGGUAGAAGGGACAUGAGGAUCACCCAUGUGCCUCACCUGC [Fiskers BMX 4 - 19] (puzzle: Brourd's mod of Exclusion 4) |  |  | apparent KD of MS2 coat protein (MS2 coat protein; [3]): 0.0168 µM
